Experimental data as given in patent US20260015399A1 (Boehringer Ingelheim, published 2026).
*1 amine or outer side, *2 acyl side, *3 side chain or, on linkers, in order; H or OH if unused. Side-chain parts run from the residue outwards. The star is where a group is joined. C18 diacid = O=C(O)CCCCCCCCCCCCCCCCC(=O)*; γGlu = O=C(O)[C@H](CCC(=O)[*:2])N[*:1]; Isovaleryl = CC(C)CC(=O)*; Ahx = NCCCCCC(=O)O

T1: human NPY2 receptor (human, UniProt P49146 1-381)
T1 sequence (looked up): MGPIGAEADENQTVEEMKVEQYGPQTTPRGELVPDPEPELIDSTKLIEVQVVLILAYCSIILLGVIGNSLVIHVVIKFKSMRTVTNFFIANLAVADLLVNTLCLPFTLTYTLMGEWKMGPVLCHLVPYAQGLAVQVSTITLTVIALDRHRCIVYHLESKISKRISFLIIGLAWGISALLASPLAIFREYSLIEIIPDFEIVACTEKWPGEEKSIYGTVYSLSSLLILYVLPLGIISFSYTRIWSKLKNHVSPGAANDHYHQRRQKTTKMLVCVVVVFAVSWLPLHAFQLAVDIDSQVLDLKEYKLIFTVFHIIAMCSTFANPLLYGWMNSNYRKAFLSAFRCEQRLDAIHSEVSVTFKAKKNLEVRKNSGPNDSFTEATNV

T2: human NPY5 receptor (human, UniProt Q15761 1-445)
T2 sequence (looked up): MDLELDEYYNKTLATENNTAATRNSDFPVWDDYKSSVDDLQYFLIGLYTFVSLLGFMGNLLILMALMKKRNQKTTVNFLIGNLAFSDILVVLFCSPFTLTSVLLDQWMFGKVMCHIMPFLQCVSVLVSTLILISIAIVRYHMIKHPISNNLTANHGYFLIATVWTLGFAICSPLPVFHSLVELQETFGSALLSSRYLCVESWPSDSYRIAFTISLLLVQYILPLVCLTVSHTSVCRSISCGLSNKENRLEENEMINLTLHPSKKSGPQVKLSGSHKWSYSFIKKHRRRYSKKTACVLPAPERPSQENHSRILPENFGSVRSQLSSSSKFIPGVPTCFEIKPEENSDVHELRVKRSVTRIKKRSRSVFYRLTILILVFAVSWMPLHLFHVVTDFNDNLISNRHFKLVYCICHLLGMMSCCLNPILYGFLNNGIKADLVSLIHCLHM

B1: Compound 52 (peptide)
peptide: Isovaleryl-APEK([Ahx-γGlu-C18 diacid])PEEDASPEEIQRYYVELRHYYNWLTRQRY-NH2
SMILES: CC[C@H](C)[C@H](NC(=O)[C@H](CCC(=O)O)NC(=O)[C@H](CCC(=O)O)NC(=O)[C@@H]1CCCN1C(=O)[C@H](CO)NC(=O)[C@H](C)NC(=O)[C@H](CC(=O)O)NC(=O)[C@H](CCC(=O)O)NC(=O)[C@H](CCC(=O)O)NC(=O)[C@@H]1CCCN1C(=O)[C@H](CCCCNC(=O)CCCCCNC(=O)CC[C@H](NC(=O)CCCCCCCCCCCCCCCCC(=O)O)C(=O)O)NC(=O)[C@H](CCC(=O)O)NC(=O)[C@@H]1CCCN1C(=O)[C@H](C)NC(=O)CC(C)C)C(=O)N[C@@H](CCC(N)=O)C(=O)N[C@@H](CCCNC(=N)N)C(=O)N[C@@H](Cc1ccc(O)cc1)C(=O)N[C@@H](Cc1ccc(O)cc1)C(=O)N[C@H](C(=O)N[C@@H](CCC(=O)O)C(=O)N[C@@H](CC(C)C)C(=O)N[C@@H](CCCNC(=N)N)C(=O)N[C@@H](Cc1c[nH]cn1)C(=O)N[C@@H](Cc1ccc(O)cc1)C(=O)N[C@@H](Cc1ccc(O)cc1)C(=O)N[C@@H](CC(N)=O)C(=O)N[C@@H](Cc1c[nH]c2ccccc12)C(=O)N[C@@H](CC(C)C)C(=O)N[C@H](C(=O)N[C@@H](CCCNC(=N)N)C(=O)N[C@@H](CCC(N)=O)C(=O)N[C@@H](CCCNC(=N)N)C(=O)N[C@@H](Cc1ccc(O)cc1)C(N)=O)[C@@H](C)O)C(C)C
B2: Compound 76 (peptide)
peptide: Isovaleryl-APEK([Ahx-γGlu-C18 diacid])PEEDASPEELQRYYISLRHYYNWLTRQRY-NH2
SMILES: CC[C@H](C)[C@H](NC(=O)[C@H](Cc1ccc(O)cc1)NC(=O)[C@H](Cc1ccc(O)cc1)NC(=O)[C@H](CCCNC(=N)N)NC(=O)[C@H](CCC(N)=O)NC(=O)[C@H](CC(C)C)NC(=O)[C@H](CCC(=O)O)NC(=O)[C@H](CCC(=O)O)NC(=O)[C@@H]1CCCN1C(=O)[C@H](CO)NC(=O)[C@H](C)NC(=O)[C@H](CC(=O)O)NC(=O)[C@H](CCC(=O)O)NC(=O)[C@H](CCC(=O)O)NC(=O)[C@@H]1CCCN1C(=O)[C@H](CCCCNC(=O)CCCCCNC(=O)CC[C@H](NC(=O)CCCCCCCCCCCCCCCCC(=O)O)C(=O)O)NC(=O)[C@H](CCC(=O)O)NC(=O)[C@@H]1CCCN1C(=O)[C@H](C)NC(=O)CC(C)C)C(=O)N[C@@H](CO)C(=O)N[C@@H](CC(C)C)C(=O)N[C@@H](CCCNC(=N)N)C(=O)N[C@@H](Cc1c[nH]cn1)C(=O)N[C@@H](Cc1ccc(O)cc1)C(=O)N[C@@H](Cc1ccc(O)cc1)C(=O)N[C@@H](CC(N)=O)C(=O)N[C@@H](Cc1c[nH]c2ccccc12)C(=O)N[C@@H](CC(C)C)C(=O)N[C@H](C(=O)N[C@@H](CCCNC(=N)N)C(=O)N[C@@H](CCC(N)=O)C(=O)N[C@@H](CCCNC(=N)N)C(=O)N[C@@H](Cc1ccc(O)cc1)C(N)=O)[C@@H](C)O
B3: Compound 79 (peptide)
peptide: Isovaleryl-APEK([Ahx-γGlu-C18 diacid])PEEDASPEELQRYYVSLRHYYNWLTRQRY-NH2
SMILES: CC(C)CC(=O)N[C@@H](C)C(=O)N1CCC[C@H]1C(=O)N[C@@H](CCC(=O)O)C(=O)N[C@@H](CCCCNC(=O)CCCCCNC(=O)CC[C@H](NC(=O)CCCCCCCCCCCCCCCCC(=O)O)C(=O)O)C(=O)N1CCC[C@H]1C(=O)N[C@@H](CCC(=O)O)C(=O)N[C@@H](CCC(=O)O)C(=O)N[C@@H](CC(=O)O)C(=O)N[C@@H](C)C(=O)N[C@@H](CO)C(=O)N1CCC[C@H]1C(=O)N[C@@H](CCC(=O)O)C(=O)N[C@@H](CCC(=O)O)C(=O)N[C@@H](CC(C)C)C(=O)N[C@@H](CCC(N)=O)C(=O)N[C@@H](CCCNC(=N)N)C(=O)N[C@@H](Cc1ccc(O)cc1)C(=O)N[C@@H](Cc1ccc(O)cc1)C(=O)N[C@H](C(=O)N[C@@H](CO)C(=O)N[C@@H](CC(C)C)C(=O)N[C@@H](CCCNC(=N)N)C(=O)N[C@@H](Cc1c[nH]cn1)C(=O)N[C@@H](Cc1ccc(O)cc1)C(=O)N[C@@H](Cc1ccc(O)cc1)C(=O)N[C@@H](CC(N)=O)C(=O)N[C@@H](Cc1c[nH]c2ccccc12)C(=O)N[C@@H](CC(C)C)C(=O)N[C@H](C(=O)N[C@@H](CCCNC(=N)N)C(=O)N[C@@H](CCC(N)=O)C(=O)N[C@@H](CCCNC(=N)N)C(=O)N[C@@H](Cc1ccc(O)cc1)C(N)=O)[C@@H](C)O)C(C)C
B4: Compound 91 (peptide)
peptide: Isovaleryl-APEK([Ahx-γGlu-C18 diacid])PEEDAEPEELQRYYTSLRHYYHWLTRQRY-NH2
SMILES: CC(C)CC(=O)N[C@@H](C)C(=O)N1CCC[C@H]1C(=O)N[C@@H](CCC(=O)O)C(=O)N[C@@H](CCCCNC(=O)CCCCCNC(=O)CC[C@H](NC(=O)CCCCCCCCCCCCCCCCC(=O)O)C(=O)O)C(=O)N1CCC[C@H]1C(=O)N[C@@H](CCC(=O)O)C(=O)N[C@@H](CCC(=O)O)C(=O)N[C@@H](CC(=O)O)C(=O)N[C@@H](C)C(=O)N[C@@H](CCC(=O)O)C(=O)N1CCC[C@H]1C(=O)N[C@@H](CCC(=O)O)C(=O)N[C@@H](CCC(=O)O)C(=O)N[C@@H](CC(C)C)C(=O)N[C@@H](CCC(N)=O)C(=O)N[C@@H](CCCNC(=N)N)C(=O)N[C@@H](Cc1ccc(O)cc1)C(=O)N[C@@H](Cc1ccc(O)cc1)C(=O)N[C@H](C(=O)N[C@@H](CO)C(=O)N[C@@H](CC(C)C)C(=O)N[C@@H](CCCNC(=N)N)C(=O)N[C@@H](Cc1c[nH]cn1)C(=O)N[C@@H](Cc1ccc(O)cc1)C(=O)N[C@@H](Cc1ccc(O)cc1)C(=O)N[C@@H](Cc1c[nH]cn1)C(=O)N[C@@H](Cc1c[nH]c2ccccc12)C(=O)N[C@@H](CC(C)C)C(=O)N[C@H](C(=O)N[C@@H](CCCNC(=N)N)C(=O)N[C@@H](CCC(N)=O)C(=O)N[C@@H](CCCNC(=N)N)C(=O)N[C@@H](Cc1ccc(O)cc1)C(N)=O)[C@@H](C)O)[C@@H](C)O
B5: Compound 145 (peptide)
peptide: Isovaleryl-APAK([Ahx-γGlu-C18 diacid])PEEDASPEELQRYYVSLRHYYNWLTRQRY-NH2
SMILES: CC(C)CC(=O)N[C@@H](C)C(=O)N1CCC[C@H]1C(=O)N[C@@H](C)C(=O)N[C@@H](CCCCNC(=O)CCCCCNC(=O)CC[C@H](NC(=O)CCCCCCCCCCCCCCCCC(=O)O)C(=O)O)C(=O)N1CCC[C@H]1C(=O)N[C@@H](CCC(=O)O)C(=O)N[C@@H](CCC(=O)O)C(=O)N[C@@H](CC(=O)O)C(=O)N[C@@H](C)C(=O)N[C@@H](CO)C(=O)N1CCC[C@H]1C(=O)N[C@@H](CCC(=O)O)C(=O)N[C@@H](CCC(=O)O)C(=O)N[C@@H](CC(C)C)C(=O)N[C@@H](CCC(N)=O)C(=O)N[C@@H](CCCNC(=N)N)C(=O)N[C@@H](Cc1ccc(O)cc1)C(=O)N[C@@H](Cc1ccc(O)cc1)C(=O)N[C@H](C(=O)N[C@@H](CO)C(=O)N[C@@H](CC(C)C)C(=O)N[C@@H](CCCNC(=N)N)C(=O)N[C@@H](Cc1c[nH]cn1)C(=O)N[C@@H](Cc1ccc(O)cc1)C(=O)N[C@@H](Cc1ccc(O)cc1)C(=O)N[C@@H](CC(N)=O)C(=O)N[C@@H](Cc1c[nH]c2ccccc12)C(=O)N[C@@H](CC(C)C)C(=O)N[C@H](C(=O)N[C@@H](CCCNC(=N)N)C(=O)N[C@@H](CCC(N)=O)C(=O)N[C@@H](CCCNC(=N)N)C(=O)N[C@@H](Cc1ccc(O)cc1)C(N)=O)[C@@H](C)O)C(C)C
B6: Compound 72 (peptide)
peptide: Isovaleryl-APEK([Ahx-γGlu-C18 diacid])PEADAEPEELQRYYVSLRHYYNWLTRQRY-NH2
SMILES: CC(C)CC(=O)N[C@@H](C)C(=O)N1CCC[C@H]1C(=O)N[C@@H](CCC(=O)O)C(=O)N[C@@H](CCCCNC(=O)CCCCCNC(=O)CC[C@H](NC(=O)CCCCCCCCCCCCCCCCC(=O)O)C(=O)O)C(=O)N1CCC[C@H]1C(=O)N[C@@H](CCC(=O)O)C(=O)N[C@@H](C)C(=O)N[C@@H](CC(=O)O)C(=O)N[C@@H](C)C(=O)N[C@@H](CCC(=O)O)C(=O)N1CCC[C@H]1C(=O)N[C@@H](CCC(=O)O)C(=O)N[C@@H](CCC(=O)O)C(=O)N[C@@H](CC(C)C)C(=O)N[C@@H](CCC(N)=O)C(=O)N[C@@H](CCCNC(=N)N)C(=O)N[C@@H](Cc1ccc(O)cc1)C(=O)N[C@@H](Cc1ccc(O)cc1)C(=O)N[C@H](C(=O)N[C@@H](CO)C(=O)N[C@@H](CC(C)C)C(=O)N[C@@H](CCCNC(=N)N)C(=O)N[C@@H](Cc1c[nH]cn1)C(=O)N[C@@H](Cc1ccc(O)cc1)C(=O)N[C@@H](Cc1ccc(O)cc1)C(=O)N[C@@H](CC(N)=O)C(=O)N[C@@H](Cc1c[nH]c2ccccc12)C(=O)N[C@@H](CC(C)C)C(=O)N[C@H](C(=O)N[C@@H](CCCNC(=N)N)C(=O)N[C@@H](CCC(N)=O)C(=O)N[C@@H](CCCNC(=N)N)C(=O)N[C@@H](Cc1ccc(O)cc1)C(N)=O)[C@@H](C)O)C(C)C

The binders below were run against T1, human NPY2 receptor (assay: cell-based or functional assay).

| EC50, HTRF cAMP Gi assay [nM] | Binder |
| --- | --- |
| 0.176 | B1 |
| 0.172 | B2 |
| 0.076 | B3 |
| 0.219 | B4 |
| 0.118 | B5 |
| 0.197 | B6 |

These binders were tested against T2, human NPY5 receptor (assay: cell-based or functional assay).

| EC50, HTRF cAMP Gi assay [nM] | Binder |
| --- | --- |
| > 5000 | B1 |
| > 5000 | B2 |
| > 5000 | B3 |
| 5000 | B4 |
| > 5000 | B5 |
| > 5000 | B6 |

Each binder was assayed against T1, human NPY2 receptor (assay: RLB: displacement of 125I-PYY(1-36) from hNPY2R membranes).

| Ki [nM] | Binder |
| --- | --- |
| 2.39 | B1 |
| 2.68 | B2 |
| 1.54 | B3 |
| 4.64 | B4 |
| 5.29 | B5 |
| 2.79 | B6 |
